Assay results published in patent US20030134310A1.

Columns and labels:
[1] = target: control mRNA-protein fusion molecule containing an optimized v-abl phosphorylation site (…), phosphorylated by v-abl; experiment: immunoprecipitation of the mRNA-peptide fusion with 4G10 after the v-abl kinase reaction
[2] = target: TC26 fragment of Shg (clone obtained in round five of the selection)
[3] = target: control peptides (r-series) containing the same amino acids as the test peptides, but in a scrambled order
[4] = target: full-length Shg protein

Molecule | percent of fusion molecules immunoprecipitated [1] [%] | phosphorylation of mutagenized TC26 peptides with [γ-32P]ATP [2] | v-abl kinase activity on 5 µM substrate EAIYAAPFAKKK [3] | phosphorylation in vitro [4]
4G10 anti-phosphotyrosine antibody (Upstate Biotechnology) | 3 | – | – | –
recombinant v-abl tyrosine kinase (New England Biolabs) (protein) YITPVNSLEKHSWYHGPVSRNAAEYLLSSGINGSFLVRESESSPGQRSISLRYEGRVYHYRINTASDGKLYVSSESRFNTLAELVHHHSTVADGLITTLHYPAPKRNKPTIYGVSPNYDKWEMERTDITMKHKLGGGQYGEVYEGVWKKYSLTVAVKTLKEDTMEVEEFLKEAAVMKEIKHPNLVQLLGVCTREPPFYIITEFMTYGNLLDYLRECNRQEVSAVVLLYMATQISSAMEYLEKKNFIHRDLAARNCLVGENHLVKVADFGLSRLMTGDTYTAHAGAKFPIKWTAPESLAYNKFSIKSDVWAFGVLLWEIATYGMSPYPGIDLSQVYELLEKDYRMERPEGCPEKVYELMRACWQWNPSDRPSFAEIHQAFETMFQESSISDEVEKELGKRG | – | only the first tyrosine is a substrate for v-abl | did not have a significant effect on v-abl kinase activity | the full-length Shg protein was phosphorylated by both v-abl and ZAP 70 in vitro
ZAP 70 kinase (protein) MPDPAAHLPFFYGSISRAEAEEHLKLAGMADGLFLLRQCLRSLGGYVLSLVHDVRFHHFPIERQLNGTYAIAGGKAHCGPAELCEFYSRDPDGLPCNLRKPCNRPSGLEPQPGVFDCLRDAMVRDYVRQTWKLEGEALEQAIISQAPQVEKLIATTAHERMPWYHSSLTREEAERKLYSGAQTDGKFLLRPRKEQGTYALSLIYGKTVYHYLISQDKAGKYCIPEGTKFDTLWQLVEYLKLKADGLIYCLKEACPNSSASNASGAAAPTLPAHPSTLTHPQRRIDTLNSDGYTPEPARITSPDKPRPMPMDTSVYESPYSDPEELKDKKLFLKRDNLLIADIELGCGNFGSVRQGVYRMRKKQIDVAIKVLKQGTEKADTEEMMREAQIMHQLDNPYIVRLIGVCQAEALMLVMEMAGGGPLHKFLVGKREEIPVSNVAELLHQVSMGMKYLEEKNFVHRDLAARNVLLVNRHYAKISDFGLSKALGADDSYYTARSAGKWPLKWYAPECINFRKFSSRSDVWSYGVTMWEALSYGQKPYKKMKGPEVMAFIEQGKRMECPPECPPELYALMSDCWIYKWEDRPDFLTVEQRMRACYYSLASKVEGPPGSTQKAEAACA | – | – | – | the full-length Shg protein was phosphorylated by both v-abl and ZAP 70 in vitro
